Patent publication US6943279B1, “Amino polyol amine oxidase polynucleotides and related polypeptides and methods of use” (priority 1999, dated 2005)
Read-outs that look alike come from different tables or passages of the source.

Experiments:
APAO enzyme = assay type: biochemical, Exophiala spinifera
Protocol: The following assay was used to determine the substrate specificity of the APAO enzyme. […] The APAO enzyme was recombinant enzyme produced,as GST fusion in E. coli, purified over a glutathione affinity column and cleaved with thrombin to remove the GST. All components were mixed at room temperature. The initial rate was determined in a spectrophotometer at 572 nm over one minute by absorbance units/second (BLANK). Ten microliters of APAO at 70 ug/ml was added and mixed. The initial rate was again determined at 572 nm over one minute in absorbance units/second (SAMPLE). The rates were converted to absorbance units/minute. The BLANK value was subtracted from the SAMPLE value. The absorbance units were converted to μM H2O2 wherein 1 μM H2O2 equals 0.138 absorbance units at pH 8.0.

APAO = APAO activity of crude cell-free extract, TLC; assay type: biochemical, Exophiala spinifera; details: for modification by the crude extract: crude cell-free extract of induced Exophiala spinifera, TLC
Protocol: For analysis of APAO activity, an alternative method was used. Equal volumes of sample and ^14C-AP1 (1 mg/ml, pH 8, 50 mM sodium phosphate) were incubated at room temperature for one to six days. Analytical thin-layer chromatography was then carried out on C60 HPK silica gel plates (Whatman #4807-700; 10×10 cm; 0.2 mm thick). After application of from 0.1 to 2 μl of aqueous sample, the plates were air-dried and developed in CHCl3:MeOH:CH3COOH:H20 (55:36:8:1). Plates were then air dried, and exposed to Phosphorlmager screen (Molecular Dynamics) or autoradiographic film. A Storm™ Phosphorlmager (Molecular Dynamics) was used to scan the image produced on the screen.
A cell-free extract that contains the deaminase activity was obtained by subjecting substrate-induced Exophiala spinifera cells to disruption using a Bead Beater™ in 50 mM Na-phosphate, pH 8.0, and recovering the cell-free supernatant by centrifugation and 0.45 micron filtration. Catabolic activity is assayed by incubating extracts with AP1 (hydrolyzed fumonisin BI backbone) or “^4C-labelled AP1 with the extract and evaluating by TLC on C18 or C60 silica. […] Other amine-containing substrates were tested for modification by the crude extract. […] Preparative amounts of the product, named 2-OP, have also been purified and analyzed by C13 nmr.

[1] = Mutated APAO lysates from E coli, Amplex Red assay, substrate AP1; assay type: biochemical
Protocol: The following assay was used to determine the substrate specificity of the APAO enzyme. Reaction mix: 436 μl of 200 mM Na-phosphate, pH8.0; 50 μl substrate (10 mM); 2 μl Amplex Red (1 mg in 200 μl DMSO); and 2 μof Peroxidase (5000 U/ml). The APAO enzyme was recombinant enzyme produced,as GST fusion in E. coli, purified over a glutathione affinity column and cleaved with thrombin to remove the GST. All components were mixed at room temperature. The initial rate was determined in a spectrophotometer at 572 nm over one minute by absorbance units/second (BLANK). Ten microliters of APAO at 70 ug/ml was added and mixed. The initial rate was again determined at 572 nm over one minute in absorbance units/second (SAMPLE). The rates were converted to absorbance units/minute. The BLANK value was subtracted from the SAMPLE value. The absorbance units were converted to μM H2O2 wherein 1 μM H2O2 equals 0.138 absorbance units at pH 8.0.
The APAO molecules mutated at specific cysteines were tested in a bacterial expression system using the previously described Amplex Red assay. The results can be seen in the table below entitled “Cys(−) APAO lysates from E. coli.” The mutated APAO molecules can then be tested in maize, linked to a signal peptide, as previously described. Either one of the cysteines or two or three together could be mutated to serines without any measured loss in APAO enzyme activity of the E coli-expressed enzyme. […] The mutated versions of APAO operably linked to a signal sequence, which retain function when expressed as recombinant fusion proteins in E. coli may also provide additional stability or foldability when expressed in plants or other secretion expression systems.

[2] = Mutated APAO lysates from E coli, Amplex Red assay, substrate FB1; assay type: biochemical
[3] = Mutated APAO lysates from E coli, Amplex Red assay, substrate AP1; assay type: biochemical; details: Glyc(−) APAO lysates from E coli
[4] = 0.5 mg/mL substrate, pH 8.0, room temperature
[5] = 1 mM substrate, pH 8.0, room temperature
[6] = Cys(−) APAO lysates from E coli
[7] = Triple Cys(−) APAO lysates from E coli
[8] = Glyc(−) APAO lysates from E coli

`CCCC[C@@H](C)[C@@H](OC(=O)C[C@@H](CC(=O)O)C(=O)O)[C@H](C[C@@H](C)CCCCCC[C@@H](O)C[C@H](O)[C@H](C)N)OC(=O)C[C@@H](CC(=O)O)C(=O)O` [Fumonisin B2] showed an RATE (APAO enzyme; [4]) of 0.3058 μM H2O2/min.

`CCCC[C@@H](C)[C@@H](OC(=O)C[C@@H](CC(=O)O)C(=O)O)[C@H](C[C@@H](C)C[C@H](O)CCCCCC[C@H](O)[C@H](C)N)OC(=O)C[C@@H](CC(=O)O)C(=O)O` [Fumonisin B3] gave an RATE (APAO enzyme; [5]) of 0.1449 μM H2O2/min.

`CCCC[C@@H](C)[C@@H](OC(=O)C[C@@H](CC(=O)O)C(=O)O)[C@H](C[C@@H](C)CCCCCCCC[C@H](O)[C@H](C)N)OC(=O)C[C@@H](CC(=O)O)C(=O)O` [Fumonisin B4] gave an RATE (APAO enzyme; [4]) of 0.1728 μM H2O2/min.

With `NCCc1ccc(O)c(O)c1` [dopamine] the RATE (APAO enzyme; pH 8) was 0.0040 μM H2O2/min.

`CNC[C@H](O)c1ccc(O)c(O)c1` [epinephrine] gave an RATE (APAO enzyme; pH 8) of 0.0071 μM H2O2/min.

For `NC[C@H](O)c1ccc(O)c(O)c1` [norepinephrine], the RATE (APAO enzyme; [5]) was 0.0087 μM H2O2/min.

With `CCCCCCCCCCCCCC[C@@H](O)[C@@H](O)[C@@H](N)CO` [phytosphingosine] the “modification by the crude extract” value (APAO) was “apparently not modified”.

In the case of `NCCCNCCCCNCCCN` [spermine], the RATE (APAO enzyme; pH 8) is reported as 0.0002 μM H2O2/min.

With `CCCCCCCCCCCCCCC[C@@H](O)[C@@H](N)CO` [sphinganine] the “modification by the crude extract” value (APAO) was “apparently not modified”.

For `CCCCCCCCCCCCC/C=C/[C@@H](O)[C@@H](N)CO` [sphingosine], the “modification by the crude extract” value (APAO) was “apparently not modified”.

B1: C359S, C461S: APAO mutated at both cysteines 359 and 461 (SEQ ID NO: 51), plasmid PHP16738 (protein)
chain: KDNVADVVVVGAGLSGLETARKVQAAGLSCLVLEAMDRVGGKTLSVQSGPGRTTINDLGAAWINDSNQSEVSRLFERFHLEGELQRTTGNSIHQAQDGTTTTAPYGDSLLSEEVASALAELLPVWSQLIEEHSLQDLKASPQAKRLDSVSFAHYCEKELNLPAVLGVANQITRALLGVEAHEISMLFLTDYIKSATGLSNIFSDKKDGGQYMRCKTGMQSISHAMSKELVPGSVHLNTPVAEIEQSASGCTVRSASGAVFRSKKVVVSLPTTLYPTLTFSPPLPAEKQALAENSILGYYSKIVFVWDKPWWREQGFSGVLQSSSDPISFARDTSIDVDRQWSITCFMVGDPGRKWSQQSKQVRQKSVWDQLRAAYENAGAQVPEPANVLEIEWSKQQYFQGAPSAVYGLNDLITLGSALRTPFKSVHFVGTETSLVWKGYMEGAIRSGQRGAAEVVASLVPAA
modifications: Cys (-) APAO; removal of cys 359 and 461 (Exophiala spinifera)
In the case of B1, the Conclusion [1, 6] is reported as “Fully/More Active”, the “M H2O2/min” value [1, 6] is reported as 3.90 μM H2O2/min and the Conclusion ([1]; Cys(−) APAO lysates from E coli, listed as C359S+C461S) is reported as “more APAO activity in crude lysates than wild type enzyme”. For the same molecule, the Conclusion [2, 6] was “Slightly active” and the “M H2O2/min” value [2, 6] was 0.16 μM H2O2/min.

B2: C461S: APAO mutated at cysteine 461 (SEQ ID NO: 49), plasmid PHP16737 (protein)
chain: KDNVADVVVVGAGLSGLETARKVQAAGLSCLVLEAMDRVGGKTLSVQSGPGRTTINDLGAAWINDSNQSEVSRLFERFHLEGELQRTTGNSIHQAQDGTTTTAPYGDSLLSEEVASALAELLPVWSQLIEEHSLQDLKASPQAKRLDSVSFAHYCEKELNLPAVLGVANQITRALLGVEAHEISMLFLTDYIKSATGLSNIFSDKKDGGQYMRCKTGMQSICHAMSKELVPGSVHLNTPVAEIEQSASGCTVRSASGAVFRSKKVVVSLPTTLYPTLTFSPPLPAEKQALAENSILGYYSKIVFVWDKPWWREQGFSGVLQSSSDPISFARDTSIDVDRQWSITCFMVGDPGRKWSQQSKQVRQKSVWDQLRAAYENAGAQVPEPANVLEIEWSKQQYFQGAPSAVYGLNDLITLGSALRTPFKSVHFVGTETSLVWKGYMEGAIRSGQRGAAEVVASLVPAA
modifications: Cys (-) APAO; removal of cysteine 461 (Exophiala spinifera)
For B2, the Conclusion [1, 6] was “Fully Active”, the “M H2O2/min” value [1, 6] was 2.25 μM H2O2/min and the Conclusion [2, 6] was “Slightly active”. For the same molecule, the “M H2O2/min” value [2, 6] was 0.14 μM H2O2/min.

B3: C167S, C359S, C461S: triply Cys-mutated version of APAO (SEQ ID NO: 53), plasmid PHP17089 (protein)
chain: KDNVADVVVVGAGLSGLETARKVQAAGLSSLVLEAMDRVGGKTLSVQSGPGRTTINDLGAAWINDSNQSEVSRLFERFHLEGELQRTTGNSIHQAQDGTTTTAPYGDSLLSEEVASALAELLPVWSQLIEEHSLQDLKASPQAKRLDSVSFAHYCEKELNLPAVLGVANQITRALLGVEAHEISMLFLTDYIKSATGLSNIFSDKKDGGQYMRCKTGMQSISHAMSKELVPGSVHLNTPVAEIEQSASGCTVRSASGAVFRSKKVVVSLPTTLYPTLTFSPPLPAEKQALAENSILGYYSKIVFVWDKPWWREQGFSGVLQSSSDPISFARDTSIDVDRQWSITCFMVGDPGRKWSQQSKQVRQKSVWDQLRAAYENAGAQVPEPANVLEIEWSKQQYFQGAPSAVYGLNDLITLGSALRTPFKSVHFVGTETSLVWKGYMEGAIRSGQRGAAEVVASLVPAA
modifications: Cys (-) APAO; removal of cys 169, 359, and 461 (Exophiala spinifera)
For B3, the Conclusion [1, 6] was “Slightly active”, the “M H2O2/min” value [1, 6] was 0.27 μM H2O2/min and the Conclusion [1, 7] was “Slightly Active”. The “M H2O2/min” value [1, 7] was 0.27 μM H2O2/min, the Conclusion [2, 6] was “Slightly active” and the “M H2O2/min” value [2, 6] was 0.25 μM H2O2/min. For the same molecule, the Conclusion [2, 7] was “Slightly active” and the “M H2O2/min” value [2, 7] was 0.26 μM H2O2/min.

B4: APAO: amino polyol amine oxidase from Exophiala spinifera, ATCC 74269 (SEQ ID NO: 23) (protein, listed as Exophiala spinifera)
chain: MALAPSYINPPNVASPAGYSHVGVGPDGGRYVTIAGQIGQDASGVTDPAYEKQVAQAFANLRACLAAVGATSNDVTKLNYYIVDYAPSKLTAIGDGLKATFALDRLPPCTLVPVSALSSPEYLFEVDATALVPGHTTPDNVADVVVVGAGLSGLETARKVQAAGLSCLVLEAMDRVGGKTLSVQSGPGRTTINDLGAAWINDSNQSEVSRLFERFHLEGELQRTTGNSIHQAQDGTTTTAPYGDSLLSEEVASALAELLPVWSQLIEEHSLQDLKASPQAKRLDSVSFAHYCEKELNLPAVLGVANQITRALLGVEAHEISMLFLTDYIKSATGLSNIFSDKKDGGQYMRCKTGMQSICHAMSKELVPGSVHLNTPVAEIEQSASGCTVRSASGAVFRSKKVVVSLPTTLYPTLTFSPPLPAEKQALAENSILGYYSKIVFVWDKPWWREQGFSGVLQSSCDPISFARDTSIDVDRQWSITCFMVGDPGRKWSQQSKQVRQKSVWDQLRAAYENAGAQVPEPANVLEIEWSKQQYFQGAPSAVYGLNDLITLGSALRTPFKSVHFVGTETSLVWKGYMEGAIRSGQRGAAEVVASLVPAA
With B4 the “AP1 catabolic activity after heating” value (APAO; following 30 min. at 65° C. or 100° C.) was “no AP1 catabolic activity remained”, the “activity on intact FB1” value (APAO; partially purified APAO enzyme from Exophiala spinifera) was “little or no activity” and the “activity on intact FB1 and other B-series fumonisins” value (APAO enzyme; recombinant APAO enzyme expressed in E. coli) was “significant but reduced activity”. The Conclusion [1, 6] was “Active (wild type)”, the “M H2O2/min” value [1, 6] was 2.14 μM H2O2/min and the Conclusion [1, 7] was “Active (wild type)”. The “M H2O2/min” value [1, 7] was 1.16 μM H2O2/min, the Conclusion [2, 6] was “Slightly active (wt)” and the “M H2O2/min” value [2, 6] was 0.11 μM H2O2/min. The Conclusion [2, 8] was “Slightly active (wt)”, the “M H2O2/min” value [2, 8] was 0.12 μM H2O2/min and the Conclusion [2, 7] was “Slightly active (wt)”. For the same molecule, the “M H2O2/min” value [2, 7] was 0.27 μM H2O2/min, the Conclusion [3] was “Active (wild type)” and the “M H2O2/min” value [3] was 1.92 μM H2O2/min.
